{
  "source": "patent US20240336909",
  "key": {"[1]": {"test_system": "AxCT mask27 EGFR EH104 L063 version 1"}, "[2]": {"test_system": "AxCT mask27 EpCAM H90 L001 version 1"}, "[3]": {"test_system": "AxCT mask27 EGFR EH104 L066 version 1"}, "[4]": {"test_system": "AxCT mask27 EGFR EH104 L055 version 1"}, "[5]": {"test_system": "AxCT mask27 EGFR EH104 L043 version 1"}, "[6]": {"test_system": "AxCT mask27 EGFR EH104 L065 version 1"}, "[7]": {"test_system": "AxCT mask27 EGFR EH104 L056 version 1"}, "[8]": {"test_system": "AxCT mask27 EGFR EH104 L070 version 1"}, "[9]": {"test_system": "AxCT mask27 EGFR EH104 L058 version 1"}, "[10]": {"test_system": "AxCT mask27 EpCAM H90.2 L073 version 1"}, "[11]": {"test_system": "AxCT mask27 EpCAM H90.2 L076 version 1"}, "[12]": {"test_system": "AxCT mask27 EpCAM H90.2 L064 version 1"}, "[13]": {"test_system": "AxCT mask27 EpCAM H90.2 L060 version 1"}, "[14]": {"test_system": "AxCT mask27 EGFR EH104 L001 version 1"}, "[15]": {"test_system": "AxCT mask27 EGFR EH104 L061 version 1"}, "[16]": {"test_system": "AxCT mask27 EGFR EH104 L073 version 1"}, "[17]": {"test_system": "AxCT mask27 EpCAM H90.2 L063 version 1"}, "[18]": {"test_system": "AxCT mask27 EpCAM H90.2 NCLV"}, "[19]": {"test_system": "AxCT mask27 EGFR EH104 L060 version 1"}, "[20]": {"test_system": "AxCT mask27 EGFR EH104 L062 version 1"}, "[21]": {"test_system": "AxCT mask27 EGFR EH104 L057 version 1"}, "[22]": {"test_system": "AxCT mask27 EGFR EH104 L040 version 1"}, "[23]": {"test_system": "AxCT mask27 EpCAM H90.2 L043 version 1"}, "[24]": {"test_system": "AxCT mask27 EGFR EH104 L041 version 1"}, "[25]": {"test_system": "AxCT mask27 EGFR EH104 L067 version 1"}, "[26]": {"test_system": "AxCT mask27 EpCAM H90.2 L061 version 1"}, "[27]": {"test_system": "AxCT mask27 EGFR EH104 L071 version 1"}, "[28]": {"test_system": "AxCT mask27 EpCAM H90.2 L075 version 1"}, "[29]": {"test_system": "AxCT mask27 EGFR EH104 L072 version 1"}, "[30]": {"test_system": "AxCT mask27 EpCAM H90.2 L041 version 1"}, "[31]": {"test_system": "AxCT mask27 EpCAM H90.2 L040 version 1"}, "[32]": {"test_system": "AxCT mask27 EGFR EH104 L069 version 1"}, "[33]": {"test_system": "AxCT mask27 EGFR EH104 L059 version 1"}, "[34]": {"test_system": "AxCT mask27 EGFR EH104 L064 version 1"}, "[35]": {"test_system": "AxCT mask27 EpCAM H90.2 L059 version 1"}, "[36]": {"test_system": "AxCT mask27 EGFR EH104 L068 version 1"}, "[37]": {"test_system": "AxCT mask27 EGFR EH104 L054 version 1"}},
  "data": [
    {"substance": "MMP-8", "values": [
      {"measurement": "Percent cleavage", "setting": "[1]", "result": 0, "unit": "%"},
      {"measurement": "Percent cleavage", "setting": "[2]", "result": 61, "unit": "%"},
      {"measurement": "Percent cleavage", "setting": "[3]", "result": 0, "unit": "%"},
      {"measurement": "Percent cleavage", "setting": "[4]", "result": 29, "unit": "%"},
      {"measurement": "Percent cleavage", "setting": "[5]", "result": 0, "unit": "%"},
      {"measurement": "Percent cleavage", "setting": "[6]", "result": 18, "unit": "%"},
      {"measurement": "Percent cleavage", "setting": "[7]", "result": 7, "unit": "%"},
      {"measurement": "Percent cleavage", "setting": "[8]", "result": 0, "unit": "%"},
      {"measurement": "Percent cleavage", "setting": "[9]", "result": 0, "unit": "%"},
      {"measurement": "Percent cleavage", "setting": "[10]", "result": 0, "unit": "%"},
      {"measurement": "Percent cleavage", "setting": "[11]", "result": 0, "unit": "%"},
      {"measurement": "Percent cleavage", "setting": "[12]", "result": 8, "unit": "%"},
      {"measurement": "Percent cleavage", "setting": "[13]", "result": 0, "unit": "%"},
      {"measurement": "Percent cleavage", "setting": "[14]", "result": 44, "unit": "%"},
      {"measurement": "Percent cleavage", "setting": "[15]", "result": 15, "unit": "%"},
      {"measurement": "Percent cleavage", "setting": "[16]", "result": 0, "unit": "%"},
      {"measurement": "Percent cleavage", "setting": "[17]", "result": 0, "unit": "%"},
      {"measurement": "Percent cleavage", "setting": "[18]", "result": 0, "unit": "%"},
      {"measurement": "Percent cleavage", "setting": "[19]", "result": 0, "unit": "%"},
      {"measurement": "Percent cleavage", "setting": "[20]", "result": 6, "unit": "%"},
      {"measurement": "Percent cleavage", "setting": "[21]", "result": 11, "unit": "%"},
      {"measurement": "Percent cleavage", "setting": "[22]", "result": 6, "unit": "%"},
      {"measurement": "Percent cleavage", "setting": "[23]", "result": 0, "unit": "%"},
      {"measurement": "Percent cleavage", "setting": "[24]", "result": 0, "unit": "%"},
      {"measurement": "Percent cleavage", "setting": "[25]", "result": 13, "unit": "%"},
      {"measurement": "Percent cleavage", "setting": "[26]", "result": 25, "unit": "%"},
      {"measurement": "Percent cleavage", "setting": "[27]", "result": 20, "unit": "%"},
      {"measurement": "Percent cleavage", "setting": "[28]", "result": 0, "unit": "%"},
      {"measurement": "Percent cleavage", "setting": "[29]", "result": 0, "unit": "%"},
      {"measurement": "Percent cleavage", "setting": "[30]", "result": 0, "unit": "%"},
      {"measurement": "Percent cleavage", "setting": "[31]", "result": 0, "unit": "%"},
      {"measurement": "Percent cleavage", "setting": "[32]", "result": 16, "unit": "%"},
      {"measurement": "Percent cleavage", "setting": "[33]", "result": 18, "unit": "%"},
      {"measurement": "Percent cleavage", "setting": "[34]", "result": 7, "unit": "%"},
      {"measurement": "Percent cleavage", "setting": "[35]", "result": 25, "unit": "%"},
      {"measurement": "Percent cleavage", "setting": "[36]", "result": 0, "unit": "%"},
      {"measurement": "Percent cleavage", "setting": "[37]", "result": 8, "unit": "%"}
    ]},
    {"substance": "MMP-9", "values": [
      {"measurement": "Percent cleavage", "setting": "[1]", "result": 21, "unit": "%"},
      {"measurement": "Percent cleavage", "setting": "[2]", "result": 80, "unit": "%"},
      {"measurement": "Percent cleavage", "setting": "[3]", "result": 29, "unit": "%"},
      {"measurement": "Percent cleavage", "setting": "[4]", "result": 75, "unit": "%"},
      {"measurement": "Percent cleavage", "setting": "[5]", "result": 20, "unit": "%"},
      {"measurement": "Percent cleavage", "setting": "[6]", "result": 70, "unit": "%"},
      {"measurement": "Percent cleavage", "setting": "[7]", "result": 52, "unit": "%"},
      {"measurement": "Percent cleavage", "setting": "[8]", "result": 0, "unit": "%"},
      {"measurement": "Percent cleavage", "setting": "[9]", "result": 27, "unit": "%"},
      {"measurement": "Percent cleavage", "setting": "[10]", "result": 0, "unit": "%"},
      {"measurement": "Percent cleavage", "setting": "[11]", "result": 17, "unit": "%"},
      {"measurement": "Percent cleavage", "setting": "[12]", "result": 0, "unit": "%"},
      {"measurement": "Percent cleavage", "setting": "[13]", "result": 0, "unit": "%"},
      {"measurement": "Percent cleavage", "setting": "[14]", "result": 74, "unit": "%"},
      {"measurement": "Percent cleavage", "setting": "[15]", "result": 54, "unit": "%"},
      {"measurement": "Percent cleavage", "setting": "[16]", "result": 11, "unit": "%"},
      {"measurement": "Percent cleavage", "setting": "[17]", "result": 8, "unit": "%"},
      {"measurement": "Percent cleavage", "setting": "[18]", "result": 0, "unit": "%"},
      {"measurement": "Percent cleavage", "setting": "[19]", "result": 7, "unit": "%"},
      {"measurement": "Percent cleavage", "setting": "[20]", "result": 63, "unit": "%"},
      {"measurement": "Percent cleavage", "setting": "[21]", "result": 57, "unit": "%"},
      {"measurement": "Percent cleavage", "setting": "[22]", "result": 63, "unit": "%"},
      {"measurement": "Percent cleavage", "setting": "[23]", "result": 7, "unit": "%"},
      {"measurement": "Percent cleavage", "setting": "[24]", "result": 59, "unit": "%"},
      {"measurement": "Percent cleavage", "setting": "[25]", "result": 50, "unit": "%"},
      {"measurement": "Percent cleavage", "setting": "[26]", "result": 36, "unit": "%"},
      {"measurement": "Percent cleavage", "setting": "[27]", "result": 46, "unit": "%"},
      {"measurement": "Percent cleavage", "setting": "[28]", "result": 0, "unit": "%"},
      {"measurement": "Percent cleavage", "setting": "[29]", "result": 51, "unit": "%"},
      {"measurement": "Percent cleavage", "setting": "[30]", "result": 57, "unit": "%"},
      {"measurement": "Percent cleavage", "setting": "[31]", "result": 60, "unit": "%"},
      {"measurement": "Percent cleavage", "setting": "[32]", "result": 29, "unit": "%"},
      {"measurement": "Percent cleavage", "setting": "[33]", "result": 32, "unit": "%"},
      {"measurement": "Percent cleavage", "setting": "[34]", "result": 13, "unit": "%"},
      {"measurement": "Percent cleavage", "setting": "[35]", "result": 19, "unit": "%"},
      {"measurement": "Percent cleavage", "setting": "[36]", "result": 19, "unit": "%"},
      {"measurement": "Percent cleavage", "setting": "[37]", "result": 9, "unit": "%"}
    ]}
  ]
}
